Test results reported in US20140011732A1.
Non-standard residues stand in square brackets, D forms with d. No end group written: not given here. Aib = CC(C)(N)C(=O)O

Experiments:
[1] = biological target: human serum albumin (HSA) (human) (UniProt P02768); assay: competition SPA on biotinylated HSA, 125I acylated GLP-1 tracer
[2] = biological target: human serum albumin (HSA) (human), P02768; assay: as above; conditions: remark: other sources report otherwise

B1: N-epsilon23-[2-(2-[2-(2-[2-(2-((R)-3-[1-(17-Carboxyheptadecanoylamino)piperidin-4-ylcarbonylamino]-3-(carboxypropionylamino)ethoxy)ethoxy]acetylamino)ethoxy]eth … (peptide)
peptide: H[Aib]EGTFTSDVSSYLEGKAAREFIAWLVRGRG
modifications: not fully specified (residue 17); printed as N-epsilon23-[2-(2-[2-(2-[2-(2-(R)-3-[1-(17-Carboxyheptadecanoylamino)piperidin-4-ylcarbonylamino]-3-(carboxypropionylamino)ethoxy)ethoxy]acetylamino)ethoxy]ethoxy)acetyl][Aib8,Arg26,Arg 34]GLP-1-(7-37)
- EC50 [1]: 300 to 800 nM

B2: N-epsilon26-[(S)-4-Carboxy-4-({trans-4-[(19-carboxynonadecanoylamino)methyl]cyclohexanecarbonyl}amino)butyryl][Aib8,Arg34]GLP-1-(7-37) (peptide)
peptide: HAEGTFTSDVSSYLEGQAAKEFIAWLVRGRG
modifications: here or on the partner: Aib8; Lys26 N-epsilon carries the acyl side chain printed in the name; biotinylated
- EC50 [2]: 300 to 800 nM
